Measured values reported in US20250346639A1, “BACTERIOCIN POLYPEPTIDES, NUCLEIC ACIDS ENCODING SAME, AND METHODS OF USE THEREOF” (Syngulon SA, priority 2022, published 2025).

B1: Bacteriocin BCW 2997: putative circular bacteriocin of Listeria monocytogenes BCW 2997; SEQ ID NO: 818 circularized with Npu split intein (protein)
chain: SIKVYLKKQIKKKGRKAVIAWLAKEFGIPGGVAATVLNIVEAGGWATTILSILTAVGSGGLSLIAAAGKE
modifications: circularized via Npu split intein; Strain BCW 2997; Bacteriocin BCW 2997; Listeria monocytogenes
B2: Uberolysin A (protein, listed as Streptococcus uberis)
chain: SGTAKKVVDAIDKGAAAFVIISIISTVISAGALGAVSASADFIILTVKNYISRNLKAQAVIWLAGYTGIA
modifications: circularized via Npu split intein; Uberolysin A (UberA); Strain 42
notes: circular bacteriocin of Streptococcus uberis 42
B3: Amylocyclicin (protein, listed as Bacillus amyloliquefaciens)
chain: STAAAKKAIDIIDAASTIASIISLIGIVTGAGAISYAIVATAKTMIKKYGKKYAAAWLASTLGI
modifications: circularized via Npu split intein; Strain FZB42; Amylocyclicin (Alc)
notes: circular bacteriocin of Bacillus amyloliquefaciens FZB42
B4: DSM 15102: putative circular bacteriocin of Garciella nitratireducens DSM 15102; SEQ ID NO: 832 circularized with Npu split intein (protein, listed as Garciella nitratireducens)
chain: SMLGISTVAAKKVIDIIDTASTVATIISLIGVIVGVGGITAGLVTTAKAMIKKYGKKYATMWLA
modifications: circularized via Npu split intein; Bacteriocin DSM 15102; Strain DSM 15102
B5: Circularin A (protein, listed as Clostridium beijerinckii)
chain: SIASGGAGTLMTIGWATFKATVQKLAKQSMARAIAYVAGALGVQTAAATTIVNVILNAGTLVTVLGIIA
modifications: circularized via Npu split intein; Circularin A (CirA); ATCC 25752
notes: circular bacteriocin of Clostridium beijerinckii ATCC 25752
B6: Bacteriocin YS111: putative circular bacteriocin of Streptococcus suis YS111; SEQ ID NO: 828 circularized with Npu split intein (protein, listed as Streptococcus suis)
chain: STVVNVILGAGTAVTILGIISSIASGGATTLLTVGWAGFKATVQRLAKQSMARAIAYVAAALGVPSAVA
modifications: circularized via Npu split intein; Strain YS111; Bacteriocin YS111
B7: Bacteriocin 3688STDY6124959: putative circular bacteriocin of Staphylococcus aureus 3688STDY6124959; SEQ ID NO: 814 circularized with Npu split intein (protein, listed as Staphylococcus aureus)
chain: STLGISSYAAKKAIDIIAAAGDVAAIVGLIGAVTGAGAIGAGILFTAKKLIKSYGKKYAAAWLT
modifications: circularized via Npu split intein; Bacteriocin 3688STDY6124959; Strain 3688STDY6124959
B8: Enterocin AS-48 (protein, listed as Enterococcus faecalis)
chain: SIKAYLKKEIKKKGKRAVIAWMAKEFGIPAAVAGTVLNVVEAGGWVTTIVSILTAVGSGGLSLLAAAGRE
modifications: circularized via Npu split intein; Enterocin AS-48 (EntAS48); Strain 48
notes: circular bacteriocin of Enterococcus faecalis S-48
B9: Enterocin NKR-5-3B (protein, listed as Enterococcus faecium)
chain: SSYAAKKVIDIINTGSAVATIIALVTAVVGGGLITAGIVATAKSLIKKYGAKYAAAWLTANLGI
modifications: circularized via Npu split intein; Strain NKR-5-3; Enterocin NKR-5-3B
notes: circular bacteriocin of Enterococcus faecium NKR-5-3
B10: Leucocyclicin Q (protein)
chain: SKSLANTILGAIAVGNLASWLLALVPGPGWATKAALATAETIVKHEGKAAAIAWLVNQLGI
modifications: circularized via Npu split intein; Strain TK41401; Leucocyclicin Q; Leuconostoc mesenteroides
notes: circular bacteriocin of Leuconostoc mesenteroides TK41401

Assays:
L. lactis IL1403 = assay: Antimicrobial activity (halo of inhibition on petri dishes) of cell-free produced, intein-circularized bacteriocins against indicator L. lactis IL1403; assay type: cell-based, Lactococcus lactis; set-up: key: +: Bacteriocins showing a halo of inhibition against at least one of the indicators were considered as positive; conditions: bacteriocins circularized with inteins; cell free production and overnight incubation at room temperature
Procedure: (§1) Recombinant vectors were stabilized and amplified in E. coli DH5a standard strain and used as templates for cell-free protein synthesis using PURExpress® in vitro Protein Synthesis Kit (New England Biolabs). All bacteriocins synthesized were tested on petri dishes for antimicrobial activity against an indicator strain. Bacteriocins showing a halo of inhibition against at least one of the indicators were considered as positive.
(§2) Following the same scheme as for GarML, different plasmids containing genes coding for recombinant proteins containing Npu IC and IN fused to the mature amino acid sequence of different known and hypothetical circular bacteriocins were synthesized. The circularization point for all of them was changed with respect to the native peptides so they all would start with a Ser in position 1 (Table 2.1). The Ssra tag was also added to the C-terminus. […] Plasmids synthesized were used as templates for cell free protein production. Antimicrobial activity of the peptides obtained after cell free production and overnight incubation at room temperature were tested against indicator L. lactis IL1403.

L. inocua = assay: Antimicrobial activity (halo of inhibition on petri dishes) of cell-free produced, intein-circularized bacteriocins against indicator L. inocua; assay type: cell-based; set-up: key: +: Bacteriocins showing a halo of inhibition against at least one of the indicators were considered as positive; conditions: bacteriocins circularized with inteins; cell free production
Procedure: as §1, §2

P. pentosaceus HELA = assay: Antimicrobial activity (halo of inhibition on petri dishes) of cell-free produced, intein-circularized bacteriocins against indicator P. pentosaceus HELA; assay type: cell-based; set-up: key: +: Bacteriocins showing a halo of inhibition against at least one of the indicators were considered as positive; conditions: bacteriocins circularized with inteins; cell free production
Procedure: as §1, §2

L. lactis = assay: Controlling growth of contaminating L. lactis in a culture medium with a circular bacteriocin (Examples 5 and 6); assay type: cell-based
Description: A polypeptide containing an amino acid sequence of a circular bacteriocin, for example Enterocin AS-48, flanked by a split intein is produced. The split intein is a conditionally active, pH-sensitive split intein, and is configured to circularize the bacteriocin when the pH is below 6.0. The polypeptide is introduced into a culture medium growing a microbial organism of interest, at pH 7.0. […] When a contaminating microbial species, L. lactis, is detected in the culture medium, the pH of the medium is reduced to below 6.0, which activates the split intein and causes the bacteriocin to circularize. Subsequently, the growth of the contaminating L. lactis in the culture medium is inhibited.
A microbial cell is genetically engineered with an expression vector encoding a circular bacteriocin, for example Leucocyclicin Q, flanked by a split intein. The genetically engineered microbial cell is introduced into a culture medium growing a microbial organism of interest. The microbial cell produces the bacteriocin in circularized form, and secretes it into the culture medium. Growth of a contaminating microbial species, L. lactis, is inhibited by the circular bacteriocin.

Row | Molecule | Antimicrobial activity, Indicator L. lactis IL1403 (L. lactis IL1403) | other results
1 | Bacteriocin NCTC 12958: putative circular bacteriocin of Streptococcus thermophilus NCTC 12958; SEQ ID NO: 854 circularized with Npu split intein (SAGGSIVDAFAIIAGITLPAWVAPVLAGFGVVSAIYWICGKFGIRLAPGWYQDIVDFV; circularized via Npu split intein; Bacteriocin NCTC 12958; Strain NCTC 12958; listed as Streptococcus thermophilus) | + | –
2 | Carnocyclin A (SLINAGLTVGSIISILGGVTVGLSGVFTAVKAAIAKQGIKKAIQLLVAYGIAQGTAEKVV; circularized via Npu split intein; Carnocyclin A; Strain UAL307; listed as Carnobacterium maltaromaticum) [circular bacteriocin of Carnobacterium maltaromaticum UAL307] | + | –
3 | Garvicin ML (SGAFTAAGGIMALIKKYAQKKLWKQLIAALVATGMAAGVAKTIVNAVSAGMDIATALSLF; circularized via Npu split intein; Garvicin ML (GarML); Strain DCC43; listed as Lactococcus garvieae) [circular bacteriocin of Lactococcus garvieae DCC43] | + | –
4 | Gassericin A (SGASLGTAFAAILGVTLPAWALAAAGALGATAAIYWIADQFGIHLATGTARKLLDAMA; circularized via Npu split intein; Strain LA39; Gassericin A (GasA); listed as Lactobacillus gasseri) [circular bacteriocin of Lactobacillus gasseri LA39] | + | Antimicrobial activity, Indicator L. inocua (L. inocua): +; Antimicrobial activity, Indicator P. pentosaceus HELA (P. pentosaceus HELA): +
5 | Paracyclicin P (SAGGSLAGAFSVVAGVTLPAWIVPIATAFGAVSAIYFIANKLGIHLAPGWYQDMVNYV; circularized via Npu split intein; Paracyclicin P (ParP); subsp. Paracasei JCM 8130/ DSM 5622; listed as Lactobacillus paracesei) [circular bacteriocin of Lactobacillus paracasei JCM 8130/DSM 5622] | + | –
6 | Plantaricyclin A (SLTQKALDLLSAGSSLGTVAAAVLGVTLPAWAVAAAGALGGTAAIVWIAKQFGVHLTT; circularized via Npu split intein; Plantaricyclin A (PlcA); Strain NI326; listed as Lactobacillus plantarum) [circular bacteriocin of Lactobacillus plantarum NI326] | + | –
7 | B1 | + | –
8 | B2 | – | Antimicrobial activity, Indicator L. inocua (L. inocua): +
9 | B3 | + | –
10 | B4 | + | –
11 | B5 | + | –
12 | B6 | + | –
13 | B7 | + | –
14 | B8 | + | antimicrobial activity of non-circularized bacteriocin in culture medium (L. lactis; Example 5, pH-sensitive split intein, pH 7.0): does not exhibit antimicrobial activity; growth of contaminating L. lactis in culture medium (L. lactis; Example 5, pH-sensitive split intein, pH reduced to below 6.0): inhibited
15 | B9 | + | Antimicrobial activity, Indicator L. inocua (L. inocua): +
16 | B10 | + | growth of contaminating L. lactis in culture medium (L. lactis; Example 6, bacteriocin secreted by genetically engineered microbial cell): inhibited
